Results as given in publication PMC7399497, “The Dual PDZ Domain from Postsynaptic Density Protein 95 Forms a Scaffold with Peptide Ligand” (Biophysical Journal, 2020).

Key:
Experiment in all cases: ITC; 5 mM RRESEI in the syringe, PDZ1-2, PDZ1 or PDZ2 in the cell at nominally 0.13 mM; 25°C; 20 mM Tris-HCl, 150 mM NaCl pH 8.5; single class of sites; Kd and N could not be refined independently
Conditions in all cases: both partners purified
PSD-95 PDZ1 domain = target: T1, PSD-95 PDZ1 domain (human, UniProt P78352 55-152)
T1 construct: Gly-Pro left at the N-terminus after HRV 3C cleavage of the tag; PSD-95, human, PDZ1, residues 55-152 of UniProt P78352 (98-195 of P78352-2); Glutathione was not used in the purification of the single domains; source: E. coli BL21(DE3), purified (Ni-NTA, HRV 3C tag cleavage, negative Ni-NTA, Superdex 200 SEC); not shown: His6, N-terminal, cleaved

[1] = target: T2, PSD-95 PDZ1-2 (dual PDZ domain of postsynaptic density protein 95) (human, UniProt P78352 55-249)
T2 construct: Gly-Pro left at the N-terminus after HRV 3C cleavage of the tag; PSD-95 (disks large homolog 4, SAP-90), human, residues 55-249 of UniProt P78352 (98-292 of P78352-2); PDZ1, linker and PDZ2; No Cys residues in the construct; also called apo-PDZ1-2; PDZ1-2 double domain; source: E. coli BL21(DE3), purified (Ni-NTA, HRV 3C tag cleavage, negative Ni-NTA, Superdex 200 SEC); not shown: His6, …

PSD-95 PDZ2 domain = target: T3, PSD-95 PDZ2 domain (human, UniProt P78352 154-249)
T3 construct: Gly-Pro left at the N-terminus after HRV 3C cleavage of the tag; PSD-95, human, PDZ2, residues 154-249 of UniProt P78352 (197-292 of P78352-2); Glutathione was not used in the purification of the single domains; source: E. coli BL21(DE3), purified (Ni-NTA, HRV 3C tag cleavage, negative Ni-NTA, Superdex 200 SEC); not shown: His6, N-terminal, cleaved
T3 sequence (P78352 other isoform, or with tags, fused parts or gaps): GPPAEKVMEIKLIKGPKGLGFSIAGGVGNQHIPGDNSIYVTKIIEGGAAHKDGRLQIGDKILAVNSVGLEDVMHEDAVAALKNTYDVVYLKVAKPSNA

T1 sequence (P78352 other isoform, or with tags, fused parts or gaps): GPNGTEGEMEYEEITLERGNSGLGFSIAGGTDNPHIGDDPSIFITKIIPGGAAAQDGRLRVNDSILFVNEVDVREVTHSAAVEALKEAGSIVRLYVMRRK
T2 sequence (P78352 other isoform, or with tags, fused parts or gaps): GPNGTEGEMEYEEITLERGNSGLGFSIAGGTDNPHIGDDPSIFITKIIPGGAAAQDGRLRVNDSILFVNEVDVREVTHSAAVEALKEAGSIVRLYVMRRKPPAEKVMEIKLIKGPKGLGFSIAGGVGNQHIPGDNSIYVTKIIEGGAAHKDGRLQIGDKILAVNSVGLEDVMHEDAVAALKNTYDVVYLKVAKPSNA

- Kd (PSD-95 PDZ1 domain): 6 ± 6 µM
- stoichiometry N (PSD-95 PDZ1 domain): 0.61 ± 0.08
- Kd [1]: 90 ± 9 µM
- stoichiometry N [1]: 0.2 ± 0.07
- Kd (PSD-95 PDZ2 domain): 60 ± 2 µM
- stoichiometry N (PSD-95 PDZ2 domain): 0.19 ± 0.06
B1: RRESEI peptide (last six residues, 422-427, of Kir2.1) (peptide)
peptide: RRESEI
notes: C-terminal six residues (422-427) of the inwardly rectifying potassium channel Kir2.1; also called RRESEI ligand; ligand peptide; source: synthetic peptide, 98% purity; bought: Peptide Protein Research
